Experimental data taken from patent US20210047412A1.

Assays:
canine PD-1 (canine) [1] = assay: ELISA, affinity for canine PD-1 (Table 2)
canine PD-1 (canine) [2] = assay: ELISA on plate-bound tagged canine PD-1, Kd by the Bobrovnik method
canine PD-1 (canine) [3] = assay: competition ELISA, blockade of canine PD-1/PD-L1 binding; competitor canine PD-L1
canine PD-1 (canine) [4] = assay: competition ELISA, inhibition of canine PD-1 binding to canine PD-L1; competitor canine PD-L1 (Table 2)
canine PD-1 (canine) [5] = assay: ELISA; footnote: predicted affinity, not quantitatively measured

B1: NAN7/8 (5A5) (VHH)
VHH: QVQLQASGGGLVEPGGSLRLSCAASGAIFRIAAMGWYRQAPGKERELVATITRGGSTNYADSVKGRFTISRDNAKNTAYLQMDSLKAEDTGVYYCNAGLWATTSANYWGQGTQVG
- Kd (canine PD-1 (canine) [1]): 5.01 nM
- Kd (canine PD-1 (canine) [2]): 5.01 nM
- IC50 (canine PD-1 (canine) [3]): 6.83 nM
- IC50 (canine PD-1 (canine) [4]): 6.83 nM

B2: NAN9 (VHH)
VHH: QVQLQASGGGLVQPGGSLRLSCATSGFTLDNLAIGWLRQAPGKEREGVSCISGSVGSTYYVDSVEGRFTISKDNAKNTVALQMDRLNPEDTAVYYCSAVGRERTHLPNWQYWGQGTQVG
- Kd (canine PD-1 (canine) [5]): > 10 nM

B3: NAN10 (4B4) (VHH)
VHH: QVQLQASGGGLVQGGESLRLSCAASGRTVAEYTIGWYRQAPGKEREFVAGPSWHARGTSYLDSVKGRFTISRDNTKDTVYLQMNTLKPEDTAVYYCNADVNTDYSEYVEYWGQGTQVG
- Kd (canine PD-1 (canine) [1]): 2.3 nM
- Kd (canine PD-1 (canine) [2]): 2.3 nM
- IC50 (canine PD-1 (canine) [3]): 5.04 nM
- IC50 (canine PD-1 (canine) [4]): 5.04 nM

B4: NAN13/14 (VHH)
VHH: QVQLQASGGGLAQPGGSLRLSCAASGFTFSSYAMSWARQAPGKGLEWVSGIYSDGSGSYYADSVKGRFTISRDNAKNTLYLQMNSLKPEDTALYYCAKGSWSRGIKETDYWGQGTQVG
- Kd (canine PD-1 (canine) [5]): > 10 nM

B5: NAN15 (4B2) (VHH)
VHH: QVQLQASGGGLVQPGEHLLLSCAASGFAFGIYTMGWYRQAPGKEREKVASISRTSDSWNYADSVKGRFTISRENAKNTLYLQMNSLKPEDTALYFCAKSRSAWNTDDIEYWGQGTQVG
- Kd (canine PD-1 (canine) [1]): 2.51 nM
- Kd (canine PD-1 (canine) [2]): 2.51 nM
- IC50 (canine PD-1 (canine) [3]): 5 nM
- IC50 (canine PD-1 (canine) [4]): 5 nM

B6: NAN20 (VHH)
VHH: QVQLVQSGGEVKKPGASVKVSCKASGYTFTNYGITWARQAPGKGLEWVGGIYSDGSEPYYADSMKGRFTISRDNVKSTLYLQMNDLKPEDTALYFCAKGRGDFLKSAWRENRRYDSWGQGTQVG
- Kd (canine PD-1 (canine) [5]): > 10 nM

B7: NAN22 (VHH)
VHH: QVQLQASGGGLVQPGGSLRLSCAASGSIFGLYAMGWYRQAPGKQRDLVAAIASGGSTNYADSVKGRFTISRDNAKNTVYLQMNSLKPEDTADYYCNVAGDVTAQNRCKHLEVWGQGTQVG
- Kd (canine PD-1 (canine) [5]): > 10 nM

B8: NAN27 (VHH)
VHH: QPQAFGGGLVQPGGSLRLSCVASGSTDSIYAMGWYRQAPGKQRELVATITSADSTNYADSVKGRFTISRDNAKNTVVLQMNSLKPEDTAVYYCNAGSLAGYDYWGQGTQVG
- Kd (canine PD-1 (canine) [5]): > 10 nM

B9: NAN4 (5A1) (VHH)
VHH: QVQLQASGGGLVQPGGSLTLSCAASGSIDSILAMGWYRQGPGKQREFVASISWSGDITYYADSAKGRFTISRDNAKNTVYLQMNSLKPEDTAVYYCNAGPDMQISGPTDDYDYWGQGTQVG
- Kd (canine PD-1 (canine) [1]): 7 nM
- Kd (canine PD-1 (canine) [2]): 7 nM
- IC50 (canine PD-1 (canine) [3]): 8.25 nM
- IC50 (canine PD-1 (canine) [4]): 8.25 nM

B10: NAN6 (VHH)
VHH: QVQLQASGGGLVQPGGSLTLSCAASGSIDSILAMGWYRQGPGKQRELVATITSDGGSTNYAEYVKGRFTISRDDANNTACLQMDNLKPDDTAVYYCNAKGRRLSYGYWGQGTQVG
- Kd (canine PD-1 (canine) [5]): > 10 nM
